For five molecules, Ki, binding result and Kd results are on record in publication PMC4156074, “Inhibition of Plasma Kallikrein by a Highly Specific Active Site Blocking Antibody” (The Journal of Biological Chemistry, 2014).

Holding throughout (conditions): both partners purified
Assay [1] deals with T1, Full-length human plasma kallikrein, activated form (human, UniProt P03952).
T1 construct: also called pKal; active pKal; source: bought: Enzyme Research Laboratories
The assay can be described thus: enzyme inhibition (steady state, tight-binding fit); purified Fab fragments on full-length pKal, potency studies like those of Fig. 2A; apparent.

In assay [2] the target is T2, purified pKal from mouse (Mus musculus, UniProt P26262).
T2 construct: also called mouse pKal
T2 sequence (P26262 20-638): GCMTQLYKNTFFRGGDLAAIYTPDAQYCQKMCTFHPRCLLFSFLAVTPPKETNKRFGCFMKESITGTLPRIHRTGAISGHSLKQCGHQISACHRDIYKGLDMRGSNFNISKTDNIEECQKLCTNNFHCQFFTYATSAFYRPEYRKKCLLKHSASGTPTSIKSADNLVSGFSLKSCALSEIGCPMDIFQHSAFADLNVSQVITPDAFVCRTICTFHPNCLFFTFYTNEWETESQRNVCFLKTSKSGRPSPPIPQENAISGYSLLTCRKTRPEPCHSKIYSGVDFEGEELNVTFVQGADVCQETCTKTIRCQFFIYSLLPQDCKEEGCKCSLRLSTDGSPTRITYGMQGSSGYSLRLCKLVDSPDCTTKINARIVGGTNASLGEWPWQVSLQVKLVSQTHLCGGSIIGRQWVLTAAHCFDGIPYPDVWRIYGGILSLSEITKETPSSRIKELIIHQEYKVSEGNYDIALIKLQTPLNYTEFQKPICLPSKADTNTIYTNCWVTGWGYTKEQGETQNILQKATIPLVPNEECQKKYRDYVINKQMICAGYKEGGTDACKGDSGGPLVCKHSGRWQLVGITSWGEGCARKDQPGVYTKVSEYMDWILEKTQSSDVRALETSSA
The assay can be described thus: enzyme inhibition (steady state, tight-binding fit); DX-2930 on purified pKal of mouse, rat, rabbit and cynomolgus monkey; apparent; data not shown.

Assay [3] deals with T3, pKal from rabbit plasma (Oryctolagus cuniculus, UniProt G1T127).
T3 construct: also called rabbit pKal; source: purified from rabbit plasma by Athens Research and Technology
Described as above.

Assay [4] has as its target T4, pKal from rat plasma (Rattus norvegicus, UniProt P14272).
T4 construct: also called rat pKal; source: purified from rat plasma by Athens Research and Technology
The assay is described as above.

In assay [5] the target is T5, pKal complexed with 2-chain HMWK (Homo sapiens, UniProt P03952;P01042).
T5 construct: heavy chain of 2-chain HMWK, as in m6; light chain of 2-chain HMWK, as in m6; also called pKal·HMWK complex; source: bought proteins (Enzyme Research Laboratories); pKal preincubated with 600 nM (or 4.7 uM) HMWK; copies: + + +
T5 sequence (P03952 20-390, looked up, one chain of several): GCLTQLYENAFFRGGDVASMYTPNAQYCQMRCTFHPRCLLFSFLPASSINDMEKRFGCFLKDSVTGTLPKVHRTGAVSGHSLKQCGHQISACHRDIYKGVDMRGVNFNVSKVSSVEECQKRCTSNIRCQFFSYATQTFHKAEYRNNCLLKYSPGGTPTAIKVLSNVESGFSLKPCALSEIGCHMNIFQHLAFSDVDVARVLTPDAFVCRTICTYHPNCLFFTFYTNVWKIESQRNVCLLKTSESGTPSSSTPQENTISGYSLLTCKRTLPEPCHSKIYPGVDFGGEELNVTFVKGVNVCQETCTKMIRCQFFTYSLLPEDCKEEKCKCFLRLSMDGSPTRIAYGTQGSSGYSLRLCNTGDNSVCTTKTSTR
The assay can be described thus: enzyme inhibition (steady state, tight-binding fit); DX-2930 IgG (up to 10 nM, 1.5-fold dilutions) incubated 1 h at 30 °C with 1 nM pKal, free or preincubated with 600 nM 2-chain HMWK, in 20 mM Tris-HCl pH 7.5, 150 mM NaCl, 1 mM EDTA, 0.1% PEG-8000, 0.1% Triton X-100; substrate H-Pro-Phe-Arg-AMC at 10, 50 or 100 uM; Ki from Ki app by Equation 2, averaged.

Assay [6] concerns the target T6, Full-length human plasma prekallikrein (Homo sapiens, UniProt P03952).
T6 construct: human plasma prekallikrein, single-chain zymogen; also called zymogen; source: bought: Enzyme Research Laboratories
Description: SPR; BIAcore 3000, 25 °C, HBS-P (10 mM HEPES pH 7.4, 150 mM NaCl, 0.005% P20); DX-2930 captured on goat anti-human Fc IgG on CM5; 500 nM prekallikrein, pKal or pKal-AEBSF injected 5 min at 20 ul/min, 5 min dissociation. For orientation: In SPR one partner is held on a chip, and binding of the other changes the refractive index at the surface.

Assay [7] concerns the target T4, pKal from rat plasma. Description: enzyme inhibition (steady state, tight-binding fit); purified Fab fragments on full-length pKal, potency studies like those of Fig. 2A; apparent.
For assay [8], the target named is T7, Full-length human plasma kallikrein, activated form (human, UniProt P03952 20-390; P03952 391-638).
T7 construct: also called pKal; active pKal; source: bought: Enzyme Research Laboratories
T7 sequence (P03952 20-390, chain 1 of 2): as the sequence (P03952 20-390, looked up, one chain of several) above
T7 sequence (P03952 391-638, chain 2 of 2): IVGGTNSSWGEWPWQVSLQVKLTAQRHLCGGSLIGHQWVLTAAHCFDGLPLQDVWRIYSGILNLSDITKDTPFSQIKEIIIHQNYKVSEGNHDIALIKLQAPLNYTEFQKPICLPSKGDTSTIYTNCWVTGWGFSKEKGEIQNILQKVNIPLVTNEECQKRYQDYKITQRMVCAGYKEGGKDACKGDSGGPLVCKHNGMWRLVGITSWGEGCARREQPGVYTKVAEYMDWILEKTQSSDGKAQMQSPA
Description: SPR; BIAcore 3000, 25 °C, HBS-P; 2-chain HMWK amine-coupled on CM5 (~2000 RU); varying pKal flowed 5 min at 20 ul/min; equilibrium RU fit to Equation 3.

T1 sequence (P03952 20-390, chain 1 of 2): as the sequence (P03952 20-390, looked up, one chain of several) above
T1 sequence (P03952 391-638, chain 2 of 2): as the sequence (P03952 391-638, chain 2 of 2) above
T4 sequence (P14272 20-638): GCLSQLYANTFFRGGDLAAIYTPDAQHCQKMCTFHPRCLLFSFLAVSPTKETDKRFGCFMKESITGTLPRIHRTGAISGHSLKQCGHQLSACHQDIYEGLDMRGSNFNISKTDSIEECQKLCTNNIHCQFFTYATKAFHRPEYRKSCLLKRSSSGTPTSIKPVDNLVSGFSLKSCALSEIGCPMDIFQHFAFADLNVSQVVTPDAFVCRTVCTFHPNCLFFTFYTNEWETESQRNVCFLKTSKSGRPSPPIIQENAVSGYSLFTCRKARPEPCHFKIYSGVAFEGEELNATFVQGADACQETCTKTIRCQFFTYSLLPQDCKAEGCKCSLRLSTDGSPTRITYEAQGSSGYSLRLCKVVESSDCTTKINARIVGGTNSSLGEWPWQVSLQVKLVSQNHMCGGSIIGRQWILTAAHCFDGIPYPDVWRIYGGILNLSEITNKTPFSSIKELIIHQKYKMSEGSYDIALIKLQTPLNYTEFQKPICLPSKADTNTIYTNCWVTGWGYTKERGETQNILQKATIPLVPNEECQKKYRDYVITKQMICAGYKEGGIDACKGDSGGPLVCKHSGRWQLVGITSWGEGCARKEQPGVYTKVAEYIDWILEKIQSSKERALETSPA

B1: Fab M0201-H06 (Fab, V domains shown)
VH: EVQLLESGGGLVQPGGSLRLSCAASGFTFSHYIMMWVRQAPGKGLEWVSGIYSSGGITVYADSVKGRFTISRDNSKNTLYLQMNSLRAEDTAVYYCAYRRTGVPRRDAFDIWGQGTMVTVSS
VL: DIQMTQSPSTLSASVGDRVTITCRASQSISSWLAWYQQKPGKAPNLLIYKASTLESGVPSRFSGSGSGTEFTLTISSLQPDDFATYYCQQYNTYWTFGQGTKVEIK
notes: M0162-A04 with I103V alone in HV-CDR3; against the heavy chain of m2 it keeps T101 and A108; as the light chain of m2, germ line optimisation aside; source: E. coli, secreted, purified (protein A-Sepharose)
Consider B1, for which the Ki in assay [1] amounted to 560 pM.

B2: isolate M0199-A08 (Fab, V domains shown)
VH: EVQLLESGGGLVQPGGSLRLSCAASGFTFSHYIMMWVRQAPGKGLEWVSGIYSSGGITVYADSVKGRFTISRDNSKNTLYLQMNSLRAEDTAVYYCAYRRIGVPRRDEFDIWGQGTMVTVSS
VL: DIQMTQSPSTLSASVGDRVTITCRASQSISSWLAWYQQKPGKAPNLLIYKASTLESGVPSRFSGSGSGTEFTLTISSLQPDDFATYYCQQYNTYWTFGQGTKVEIK
notes: M0162-A04 with T101I, I103V and A108E in HV-CDR3; as the heavy chain of m2 before germ line optimisation; as the light chain of m2 before germ line optimisation; also called M0199-A08 variant; source: E. coli, secreted, purified (protein A-Sepharose)
With B2, the Ki in assay [1] came out at 50 pM.

B3: DX-2930, fully human IgG1 monoclonal antibody (antibody, V domains shown)
VH: EVQLLESGGGLVQPGGSLRLSCAASGFTFSHYIMMWVRQAPGKGLEWVSGIYSSGGITVYADSVKGRFTISRDNSKNTLYLQMNSLRAEDTAVYYCAYRRIGVPRRDEFDIWGQGTMVTVSS
VL: DIQMTQSPSTLSASVGDRVTITCRASQSISSWLAWYQQKPGKAPKLLIYKASTLESGVPSRFSGSGSGTEFTLTISSLQPDDFATYYCQQYNTYWTFGQGTKVEIK
notes: the Fab portion of the heavy chain is in the deposited structures (as the heavy chain of m2); the rest is the human IgG1 constant region (f-allotype); as the light chain of m2 in the deposited structures; IgG1 (f-allotype); Biotinylated for the ELISA on HUVEC; also called germ line-optimized M0199-A08; copies: 2 + 2
In the case of B3, the Ki in assay [2] amounted to 170 pM; in assay [3], 14200 pM; in assay [4] it was 170 pM; in assay [5] it was 115 ± 3 pM. In addition, the binding result in assay [6] is listed as “no binding (tested: 500 nM)”.

B4: Fab M0162-A04 (lead Fab, parent of the affinity maturation) (Fab, V domains shown)
VH: EVQLLESGGGLVQPGGSLRLSCAASGFTFSHYIMMWVRQAPGKGLEWVSGIYSSGGITVYADSVKGRFTISRDNSKNTLYLQMNSLRAEDTAVYYCAYRRTGIPRRDAFDIWGQGTMVTVSS
VL: DIQMTQSPSTLSASVGDRVTITCRASQSISSWLAWYQQKPGKAPNLLIYKASTLESGVPSRFSGSGSGTEFTLTISSLQPDDFATYYCQQYNTYWTFGQGTKVEIK
notes: as the heavy chain of m2 but with the parental HV-CDR3 residues T101, I103, A108; as the light chain of m2, germ line optimisation aside; source: E. coli, secreted, purified (protein A-Sepharose)
Regarding B4, the Ki in assay [1] and in assay [7] was roughly 5000 pM each time.

B5: 2-chain high molecular weight kininogen (treated with pKal to excise bradykinin) (natural protein, human)
chain 1: QESQSEEIDCNDKDLFKAVDAALKKYNSQNQSNNQFVLYRITEATKTVGSDTFYSFKYEIKEGDCPVQSGKTWQDCEYKDAAKAATGECTATVGKRSSTKFSVATQTCQITPAEGPVVTAQYDCLGCVHPISTQSPDLEPILRHGIQYFNNNTQHSSLFMLNEVKRAQRQVVAGLNFRITYSIVQTNCSKENFLFLTPDCKSLWNGDTGECTDNAYIDIQLRIASFSQNCDIYPGKDFVQPPTKICVGCPRDIPTNSPELEETLTHTITKLNAENNATFYFKIDNVKKARVQVVAGKKYFIDFVARETTCSKESNEELTESCETKKLGQSLDCNAEVYVVPWEKKIYPTVNCQPLGMISLMK
chain 2: SSRIGEIKEETTVSPPHTSMAPAQDEERDSGKEQGHTRRHDWGHEKQRKHNLGHGHKHERDQGHGHQRGHGLGHGHEQQHGLGHGHKFKLDDDLEHQGGHVLDHGHKHKHGHGHGKHKNKGKKNGKHNGWKTEHLASSSEDSTTPSAQTQEKTEGPTPIPSLAKPGVTVTFSDFQDSDLIATMMPPISPAPIQSDDDWIPDIQIDPNGLSFNPISDFPDTTSPKCPGRPWKSVSEINPTTQMKESYYFDLTDGLS
notes: heavy chain of human high molecular weight kininogen after excision of bradykinin; light chain of human high molecular weight kininogen after excision of bradykinin; also called 2-chain HMWK; 2-chain kininogen; source: bought: Enzyme Research Laboratories
A word on the Kd: it is the concentration at which binding is half-saturated. In the case of B5, the affinity in assay [8], expressed as Kd, was 72000 pM.
